Among the data in US20230365641 are Est. kcat/KM values, retold here.

Several values for one entry are separate records, joined by “and”; a condition that tells them apart may be missing. Equal entries are not always repeated.

Chain of TC47 (chain, as listed by the source, chain 1 of 3, other chains not shown): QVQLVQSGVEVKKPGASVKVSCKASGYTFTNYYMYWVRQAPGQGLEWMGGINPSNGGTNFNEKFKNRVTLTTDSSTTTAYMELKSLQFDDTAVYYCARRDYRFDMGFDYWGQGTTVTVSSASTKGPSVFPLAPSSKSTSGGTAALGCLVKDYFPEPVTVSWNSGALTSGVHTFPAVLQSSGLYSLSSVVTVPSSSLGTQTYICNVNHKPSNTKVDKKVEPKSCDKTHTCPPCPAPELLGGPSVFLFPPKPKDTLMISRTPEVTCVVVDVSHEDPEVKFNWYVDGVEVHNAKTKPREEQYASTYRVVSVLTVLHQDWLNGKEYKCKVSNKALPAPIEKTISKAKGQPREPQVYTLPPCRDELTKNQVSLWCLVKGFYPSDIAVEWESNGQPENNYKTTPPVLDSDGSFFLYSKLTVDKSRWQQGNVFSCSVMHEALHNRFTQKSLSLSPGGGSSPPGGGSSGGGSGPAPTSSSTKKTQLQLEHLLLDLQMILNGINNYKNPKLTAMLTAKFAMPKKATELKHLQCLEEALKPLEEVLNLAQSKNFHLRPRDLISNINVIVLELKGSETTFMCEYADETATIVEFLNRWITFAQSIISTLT
Chain of TC47 (chain, as listed by the source, chain 2 of 3, other chains not shown): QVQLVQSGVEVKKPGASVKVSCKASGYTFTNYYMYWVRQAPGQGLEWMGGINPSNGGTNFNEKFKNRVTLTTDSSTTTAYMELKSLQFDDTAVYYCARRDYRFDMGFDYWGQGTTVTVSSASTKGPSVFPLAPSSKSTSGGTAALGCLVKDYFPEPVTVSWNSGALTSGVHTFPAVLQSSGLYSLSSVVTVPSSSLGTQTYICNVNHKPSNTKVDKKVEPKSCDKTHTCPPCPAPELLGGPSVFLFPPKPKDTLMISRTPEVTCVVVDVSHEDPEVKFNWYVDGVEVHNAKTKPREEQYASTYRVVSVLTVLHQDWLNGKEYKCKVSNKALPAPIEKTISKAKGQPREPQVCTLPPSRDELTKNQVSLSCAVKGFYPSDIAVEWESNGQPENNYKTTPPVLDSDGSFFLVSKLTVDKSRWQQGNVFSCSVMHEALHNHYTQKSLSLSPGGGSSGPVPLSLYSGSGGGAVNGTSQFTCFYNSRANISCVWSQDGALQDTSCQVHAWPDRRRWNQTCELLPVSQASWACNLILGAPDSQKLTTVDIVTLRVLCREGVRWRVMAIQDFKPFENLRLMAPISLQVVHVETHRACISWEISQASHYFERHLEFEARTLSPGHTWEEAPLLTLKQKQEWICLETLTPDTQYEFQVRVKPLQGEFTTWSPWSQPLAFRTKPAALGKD
Chain of TC24 (chain, as listed by the source, chain 1 of 3, other chains not shown): as the sequence (chain, as listed by the source, chain 1 of 3, other chains not shown) above
Chain of TC24 (chain, as listed by the source, chain 2 of 3, other chains not shown): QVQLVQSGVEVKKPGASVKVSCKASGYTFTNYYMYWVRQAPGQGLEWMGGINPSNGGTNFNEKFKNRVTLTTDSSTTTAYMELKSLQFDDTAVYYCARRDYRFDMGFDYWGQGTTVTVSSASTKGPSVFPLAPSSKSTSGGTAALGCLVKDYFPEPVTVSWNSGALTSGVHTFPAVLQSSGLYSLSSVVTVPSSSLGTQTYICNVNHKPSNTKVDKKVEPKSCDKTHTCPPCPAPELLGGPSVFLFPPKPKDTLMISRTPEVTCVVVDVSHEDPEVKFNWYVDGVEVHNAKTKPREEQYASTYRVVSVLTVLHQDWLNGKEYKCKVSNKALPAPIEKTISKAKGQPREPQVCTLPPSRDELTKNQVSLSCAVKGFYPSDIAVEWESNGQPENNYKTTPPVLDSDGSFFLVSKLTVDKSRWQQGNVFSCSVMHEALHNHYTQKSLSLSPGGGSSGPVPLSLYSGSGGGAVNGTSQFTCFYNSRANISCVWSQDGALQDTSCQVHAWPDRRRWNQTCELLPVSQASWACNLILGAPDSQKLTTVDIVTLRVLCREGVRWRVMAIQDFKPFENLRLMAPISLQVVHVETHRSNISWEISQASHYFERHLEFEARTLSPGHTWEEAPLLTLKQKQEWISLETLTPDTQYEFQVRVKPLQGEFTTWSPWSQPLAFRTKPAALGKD
Chain of TC3 (chain, as listed by the source, chain 1 of 3, other chains not shown): as the sequence (chain, as listed by the source, chain 1 of 3, other chains not shown) above
Chain of TC3 (chain, as listed by the source, chain 2 of 3, other chains not shown): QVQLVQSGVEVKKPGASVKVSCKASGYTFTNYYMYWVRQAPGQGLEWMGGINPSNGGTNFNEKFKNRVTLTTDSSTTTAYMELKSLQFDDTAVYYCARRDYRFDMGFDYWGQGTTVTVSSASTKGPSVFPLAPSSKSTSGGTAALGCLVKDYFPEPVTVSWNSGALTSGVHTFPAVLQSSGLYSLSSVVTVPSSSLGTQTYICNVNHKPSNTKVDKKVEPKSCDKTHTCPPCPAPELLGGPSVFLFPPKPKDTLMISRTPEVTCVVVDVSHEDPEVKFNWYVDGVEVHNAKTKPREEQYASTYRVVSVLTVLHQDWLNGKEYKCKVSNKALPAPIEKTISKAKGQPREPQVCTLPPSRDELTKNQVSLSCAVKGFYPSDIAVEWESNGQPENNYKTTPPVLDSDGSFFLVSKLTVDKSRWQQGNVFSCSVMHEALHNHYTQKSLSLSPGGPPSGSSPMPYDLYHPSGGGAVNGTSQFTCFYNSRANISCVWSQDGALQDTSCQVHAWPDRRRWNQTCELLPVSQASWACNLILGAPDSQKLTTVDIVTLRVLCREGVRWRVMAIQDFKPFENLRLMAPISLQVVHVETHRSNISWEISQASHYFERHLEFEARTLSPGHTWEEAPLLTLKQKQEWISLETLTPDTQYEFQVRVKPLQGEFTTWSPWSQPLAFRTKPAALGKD
Chain of TC46 (chain, as listed by the source, chain 1 of 3, other chains not shown): as the sequence (chain, as listed by the source, chain 1 of 3, other chains not shown) above
Chain of TC46 (chain, as listed by the source, chain 2 of 3, other chains not shown): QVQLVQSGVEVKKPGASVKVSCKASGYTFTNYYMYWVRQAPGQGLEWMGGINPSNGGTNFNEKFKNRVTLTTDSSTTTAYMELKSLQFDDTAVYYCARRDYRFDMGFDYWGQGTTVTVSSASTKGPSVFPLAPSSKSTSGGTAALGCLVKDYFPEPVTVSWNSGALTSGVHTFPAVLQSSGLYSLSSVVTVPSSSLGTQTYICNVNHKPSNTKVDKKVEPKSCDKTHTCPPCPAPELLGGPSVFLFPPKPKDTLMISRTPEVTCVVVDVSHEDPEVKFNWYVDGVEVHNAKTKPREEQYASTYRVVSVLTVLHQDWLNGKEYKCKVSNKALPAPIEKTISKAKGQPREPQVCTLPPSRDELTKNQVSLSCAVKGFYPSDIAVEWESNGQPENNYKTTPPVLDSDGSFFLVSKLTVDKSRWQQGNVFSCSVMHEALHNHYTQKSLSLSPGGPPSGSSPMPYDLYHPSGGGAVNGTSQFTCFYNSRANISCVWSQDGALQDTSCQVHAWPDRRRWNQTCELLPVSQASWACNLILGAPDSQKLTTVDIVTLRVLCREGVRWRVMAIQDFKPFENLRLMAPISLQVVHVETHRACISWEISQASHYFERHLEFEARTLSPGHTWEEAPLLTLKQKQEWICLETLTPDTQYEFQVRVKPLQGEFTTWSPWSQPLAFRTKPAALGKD

B1: recombinant human MMP-2 (protein)
chain: YNFFPRKPKWDKNQITYRIIGYTPDLDPETVDDAFARAFQVWSDVTPLRFSRIHDGEADIMINFGRWEHGDGYPFDGKDGLLAHAFAPGTGVGGDSHFDDDELWTLGEGQVVRVKYGNADGEYCKFPFLFNGKEYNSCTDTGRSDGFLWCSTTYNFEKDGKYGFCPHEALFTMGGNAEGQPCKFPFRFQGTSYDSCTTEGRTDGYRWCGTTEDYDRDKKYGFCPETAMSTVGGNSEGAPCVFPFTFLGNKYESCTSAGRSDGKMWCATTANYDDDRKWGFCPDQGYSLFLVAAHEFGHAMGLEHSQDPGALMAPIYTYTKNFRLSQDDIKGIQELYGASPDIDLGTGPTPTLGPVTPEICKQDIVFDGIAQIRGEIFFFKDRFIWRTVTPRDKPMGPLLVATFWPELPEKIDAVYEAPQEEKAVFFAGNEYWIYSASTLERGYPKPLTSLGLPPDVQRVDAAFNWSKNKKTYIFAGDKFWRYNEVKKKMDPGFPKLIADAWNAIPDNLDAVVDLQGGGHSYFFKGAYYLKLENQSLKSVKFGSIKSDWLGC
Regarding B1, the Est. kcat/KM with TC75 is 120000 M⁻¹ s⁻¹ and 110000 M⁻¹ s⁻¹; in the data set with TC53, 4900 M⁻¹ s⁻¹ and 4700 M⁻¹ s⁻¹; with TC57, 4000 M⁻¹ s⁻¹ and 4400 M⁻¹ s⁻¹; with TC73, 43000 M⁻¹ s⁻¹ and 41000 M⁻¹ s⁻¹; in the data set with TC74, 9600 M⁻¹ s⁻¹ and 9800 M⁻¹ s⁻¹; with TC70, 11000 M⁻¹ s⁻¹. Also, the Est. kcat/KM with TC69 was 51000 M⁻¹ s⁻¹ and 50000 M⁻¹ s⁻¹; with TC71, 130000 M⁻¹ s⁻¹ and 140000 M⁻¹ s⁻¹; with TC68 it was 3800 M⁻¹ s⁻¹.

B2: recombinant human MMP-7 (protein)
chain: YSLFPNSPKWTSKVVTYRIVSYTRDLPHITVDRLVSKALNMWGKEIPLHFRKVVWGTADIMIGFARGAHGDSYPFDGPGNTLAHAFAPGTGLGGDAHFDEDERWTDGSSLGINFLYAATHELGHSLGMGHSSDPNAVMYPTYGNGDPQNFKLSQDDIKGIQKLYGKRSNSRKK
Consider B2, for which the Est. kcat/KM with TC75 was 18000 M⁻¹ s⁻¹ and 19000 M⁻¹ s⁻¹; in the data set with TC53, 24000 M⁻¹ s⁻¹ and 23000 M⁻¹ s⁻¹; in the data set with TC57, 13000 M⁻¹ s⁻¹ and 15000 M⁻¹ s⁻¹; in the data set with TC73 it was 71000 M⁻¹ s⁻¹ and 67000 M⁻¹ s⁻¹; with TC69 it was 78000 M⁻¹ s⁻¹; with TC24, 140000 M⁻¹ s⁻¹. Moreover, the Est. kcat/KM with TC71 was 19000 M⁻¹ s⁻¹ and 22000 M⁻¹ s⁻¹; with TC47, 130000 M⁻¹ s⁻¹; in the data set with TC68 it was 13000 M⁻¹ s⁻¹; with TC46, 13000 M⁻¹ s⁻¹; with TC3, 13000 M⁻¹ s⁻¹.
